PMC5866560 (Proceedings of the National Academy of Sciences of the …, 2018)

Molecular target: T1, recombinant Bri2 protein covering residues 113 to 231 comprising the BRICHOS domain (human, UniProt Q9Y287-1 113-231)
T1 sequence (looked up): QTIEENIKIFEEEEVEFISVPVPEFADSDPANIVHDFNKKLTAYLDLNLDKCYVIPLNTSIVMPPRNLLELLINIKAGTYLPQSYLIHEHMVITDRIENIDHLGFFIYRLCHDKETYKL
Assay: immuno-electron microscopy

binding result: binds
Binder: KCNTATCATQRLANFLVHSSNNFGAILSSTNVGSNTY (peptide, UniProt P10997 34-70, looked up) [islet amyloid polypeptide IAPP 1–37]
